Measured values published in patent publication US20110091994A1, “Methods for Screening Compounds for Treating and/or Preventing an Hepatitis C Virus Infection” (priority 2008, published 2011).

B1: RABEP1 (protein, UniProt Q15276 2-862, looked up)
Rab GTPase-binding effector …: AQPGPASQPDVSLQQRVAELEKINAEFLRAQQQLEQEFNQKRAKFKELYLAKEEDLKRQNAVLQAAQDDLGHLRTQLWEAQAEMENIKAIATVSENTKQEAIDEVKRQWREEVASLQAVMKETVRDYEHQFHLRLEQERTQWAQYRESAEREIADLRRRLSEGQEEENLENEMKKAQEDAEKLRSVVMPMEKEIAALKDKLTEAEDKIKELEASKVKELNHYLEAEKSCRTDLEMYVAVLNTQKSVLQEDAEKLRKELHEVCHLLEQERQQHNQLKHTWQKANDQFLESQRLLMRDMQRMEIVLTSEQLRQVEELKKKDQEDDEQQRLNKRKDHKKADVEEEIKIPVVCALTQEESSAQLSNEEEHLDSTRGSVHSLDAGLLLPSGDPFSKSDNDMFKDGLRRAQSTDSLGTSGSLQSKALGYNYKAKSAGNLDESDFGPLVGADSVSENFDTASLGSLQMPSGFMLTKDQERAIKAMTPEQEETASLLSSVTQGMESAYVSPSGYRLVSETEWNLLQKEVHNAGNKLGRRCDMCSNYEKQLQGIQIQEAETRDQVKKLQLMLRQANDQLEKTMKDKQELEDFIKQSSEDSSHQISALVLRAQASEILLEELQQGLSQAKRDVQEQMAVLMQSREQVSEELVRLQKDNDSLQGKHSLHVSLQQAEDFILPDTTEALRELVLKYREDIINVRTAADHVEEKLKAEILFLKEQIQAEQCLKENLEETLQLEIENCKEEIASISSLKAELERIKVEKGQLESTLREKSQQLESLQEIKISLEEQLKKETAAKATVEQLMFEEKNKAQRLQTELDVSEQVQRDFVKLSQTLQVQLERIRQADSLERIRAILNDTKLTDINQLPET
B2: SF3B2 (protein, UniProt Q13435 1-895, looked up)
Splicing factor 3B subunit 2: MATEHPEPPKAELQLPPPPPPGHYGAWAAQELQAKLAEIGAPIQGNREELVERLQSYTRQTGIVLNRPVLRGEDGDKAAPPPMSAQLPGIPMPPPPLGLPPLQPPPPPPPPPPGLGLGFPMAHPPNLGPPPPLRVGEPVALSEEERLKLAQQQAALLMQQEERAKQQGDHSLKEHELLEQQKRAAVLLEQERQQEIAKMGTPVPRPPQDMGQIGVRTPLGPRVAAPVGPVGPTPTVLPMGAPVPRPRGPPPPPGDENREMDDPSVGPKIPQALEKILQLKESRQEEMNSQQEEEEMETDARSSLGQSASETEEDTVSVSKKEKNRKRRNRKKKKKPQRVRGVSSESSGDREKDSTRSRGSDSPAADVEIEYVTEEPEIYEPNFIFFKRIFEAFKLTDDVKKEKEKEPEKLDKLENSAAPKKKGFEEEHKDSDDDSSDDEQEKKPEAPKLSKKKLRRMNRFTVAELKQLVARPDVVEMHDVTAQDPKLLVHLKATRNSVPVPRHWCFKRKYLQGKRGIEKPPFELPDFIKRTGIQEMREALQEKEEQKTMKSKMREKVRPKMGKIDIDYQKLHDAFFKWQTKPKLTIHGDLYYEGKEFETRLKEKKPGDLSDELRISLGMPVGPNAHKVPPPWLIAMQRYGPPPSYPNLKIPGLNSPIPESCSFGYHAGGWGKPPVDETGKPLYGDVFGTNAAEFQTKTEEEEIDRTPWGELEPSDEESSEEEEEEESDEDKPDETGFITPADSGLITPGGFSSVPAGMETPELIELRKKKIEEAMDGSETPQLFTVLPEKRTATVGGAMMGSTHIYDMSTVMSRKGPAPELQGVEVALAPEELELDPMAMTQKYEEHVREQQAQVEKEDFSDMVAEHAAKQKQKKRKAQPQDSRGGSKKYKEFKF
B3: SDCCAG8 (protein, UniProt Q86SQ7 1-713, looked up)
Serologically defined colon …: MAKSPENSTLEEILGQYQRSLREHASRSIHQLTCALKEGDVTIGEDAPNLSFSTSVGNEDARTAWPELQQSHAVNQLKDLLRQQADKESEVSPSRRRKMSPLRSLEHEETNMPTMHDLVHTINDQSQYIHHLEAEVKFCKEELSGMKNKIQVVVLENEGLQQQLKSQRQEETLREQTLLDASGNMHNSWITTGEDSGVGETSKRPFSHDNADFGKAASAGEQLELEKLKLTYEEKCEIEESQLKFLRNDLAEYQRTCEDLKEQLKHKEFLLAANTCNRVGGLCLKCAQHEAVLSQTHTNVHMQTIERLVKERDDLMSALVSVRSSLADTQQREASAYEQVKQVLQISEEANFEKTKALIQCDQLRKELERQAERLEKELASQQEKRAIEKDMMKKEITKEREYMGSKMLILSQNIAQLEAQVEKVTKEKISAINQLEEIQSQLASREMDVTKVCGEMRYQLNKTNMEKDEAEKEHREFRAKTNRDLEIKDQEIEKLRIELDESKQHLEQEQQKAALAREECLRLTELLGESEHQLHLTRQEKDSIQQSFSKEAKAQALQAQQREQELTQKIQQMEAQHDKTENEQYLLLTSQNTFLTKLKEECCTLAKKLEQISQKTRSEIAQLSQEKRYTYDKLGKLQRRNEELEEQCVQHGRVHETMKQRLRQLDKHSQATAQQLVQLLSKQNQLLLERQSLSEEVDRLRTQLPSMPQSDC
B4: RCN3 (protein, UniProt Q96D15 21-328, looked up)
Reticulocalbin-3: KPSPDAGPHGQGRVHQAAPLSDAPHDDAHGNFQYDHEAFLGREVAKEFDQLTPEESQARLGRIVDRMDRAGDGDGWVSLAELRAWIAHTQQRHIRDSVSAAWDTYDTDRDGRVGWEELRNATYGHYAPGEEFHDVEDAETYKKMLARDERRFRVADQDGDSMATREELTAFLHPEEFPHMRDIVIAETLEDLDRNKDGYVQVEEYIADLYSAEPGEEEPAWVQTERQQFRDFRDLNKDGHLDGSEVGHWVLPPAQDQPLVEANHLLHESDTDKDGRLSKAEILGNWNMFVGSQATNYGEDLTRHHDEL
B5: SESTD1 (protein, UniProt Q86VW0 1-696, looked up)
SEC14 domain and spectrin …: MEASVILPILKKKLAFLSGGKDRRSGLILTIPLCLEQTNMDELSVTLDYLLSIPSEKCKARGFTVIVDGRKSQWNVVKTVVVMLQNVVPAEVSLVCVVKPDEFWDKKVTHFCFWKEKDRLGFEVILVSANKLTRYIEPCQLTEDFGGSLTYDHMDWLNKRLVFEKFTKESTSLLDELALINNGSDKGNQQEKERSVDLNFLPSVDPETVLQTGHELLSELQQRRFNGSDGGVSWSPMDDELLAQPQVMKLLDSLREQYTRYQEVCRQRSKRTQLEEIQQKVMQVVNWLEGPGSEQLRAQWGIGDSIRASQALQQKHEEIESQHSEWFAVYVELNQQIAALLNAGDEEDLVELKSLQQQLSDVCYRQASQLEFRQNLLQAALEFHGVAQDLSQQLDGLLGMLCVDVAPADGASIQQTLKLLEEKLKSVDVGLQGLREKGQGLLDQISNQASWAYGKDVTIENKENVDHIQGVMEDMQLRKQRCEDMVDVRRLKMLQMVQLFKCEEDAAQAVEWLSELLDALLKTHIRLGDDAQETKVLLEKHRKFVDVAQSTYDYGRQLLQATVVLCQSLRCTSRSSGDTLPRLNRVWKQFTIASEERVHRLEMAIAFHSNAEKILQDCPEEPEAINDEEQFDEIEAVGKSLLDRLTVPVVYPDGTEQYFGSPSDMASTAENIRDRMKLVNLKRQQLRHPEMVTTES
B6: SERTAD1 (protein, UniProt Q9UHV2 1-236, looked up)
SERTA domain-containing …: MLSKGLKRKREEEEEKEPLAVDSWWLDPGHTAVAQAPPAVASSSLFDLSVLKLHHSLQQSEPDLRHLVLVVNTLRRIQASMAPAAALPPVPSPPAAPSVADNLLASSDAALSASMASLLEDLSHIEGLSQAPQPLADEGPPGRSIGGAAPSLGALDLLGPATGCLLDDGLEGLFEDIDTSMYDNELWAPASEGLKPGPEDGPGKEEAPELDEAELDYLMDVLVGTQALERPPGPGR
B7: RBM4 (protein, UniProt Q9BWF3 1-364, looked up)
RNA-binding protein 4: MVKLFIGNLPREATEQEIRSLFEQYGKVLECDIIKNYGFVHIEDKTAAEDAIRNLHHYKLHGVNINVEASKNKSKTSTKLHVGNISPTCTNKELRAKFEEYGPVIECDIVKDYAFVHMERAEDAVEAIRGLDNTEFQGKRMHVQLSTSRLRTAPGMGDQSGCYRCGKEGHWSKECPIDRSGRVADLTEQYNEQYGAVRTPYTMSYGDSLYYNNAYGALDAYYKRCRAARSYEAVAAAAASVYNYAEQTLSQLPQVQNTAMASHLTSTSLDPYDRHLLPTSGAAATAAAAAAAAAAVTAASTSYYGRDRSPLRRATAPVPTVGEGYGYGHESELSQASAAARNSLYDMARYEREQYADRARYSAF
B8: SECISBP2 (protein, UniProt Q96T21 1-854, looked up)
Selenocysteine insertion …: MASEGPREPESEGIKLSADVKPFVPRFAGLNVAWLESSEACVFPSSAATYYPFVQEPPVTEQKIYTEDMAFGASTFPPQYLSSEITLHPYAYSPYTLDSTQNVYSVPGSQYLYNQPSCYRGFQTVKHRNENTCPLPQEMKALFKKKTYDEKKTYDQQKFDSERADGTISSEIKSARGSHHLSIYAENSLKSDGYHKRTDRKSRIIAKNVSTSKPEFEFTTLDFPELQGAENNMSEIQKQPKWGPVHSVSTDISLLREVVKPAAVLSKGEIVVKNNPNESVTANAATNSPSCTRELSWTPMGYVVRQTLSTELSAAPKNVTSMINLKTIASSADPKNVSIPSSEALSSDPSYNKEKHIIHPTQKSKASQGSDLEQNEASRKNKKKKEKSTSKYEVLTVQEPPRIEDAEEFPNLAVASERRDRIETPKFQSKQQPQDNFKNNVKKSQLPVQLDLGGMLTALEKKQHSQHAKQSSKPVVVSVGAVPVLSKECASGERGRRMSQMKTPHNPLDSSAPLMKKGKQREIPKAKKPTSLKKIILKERQERKQRLQENAVSPAFTSDDTQDGESGGDDQFPEQAELSGPEGMDELISTPSVEDKSEEPPGTELQRDTEASHLAPNHTTFPKIHSRRFRDYCSQMLSKEVDACVTDLLKELVRFQDRMYQKDPVKAKTKRRLVLGLREVLKHLKLKKLKCVIISPNCEKIQSKGGLDDTLHTIIDYACEQNIPFVFALNRKALGRSLNKAVPVSVVGIFSYDGAQDQFHKMVELTVAARQAYKTMLENVQQELVGEPRPQAPPSLPTQGPSCPAEDGPPALKEKEEPHYIEIWKKHLEAYSGCTLELEESLEASTSQMMNLNL

Columns and labels:
[1] = test system: HCV ORFs (Gal4-DB fusions); type: binding, HCV genotype 1b, isolate con1; conditions: human protein listed by gene symbol; the value names the HCV protein it interacts with
[2] = target: T1, HCV ORFs (Gal4-DB fusions) (Hepatitis C virus genotype 1b, UniProt Q9WMX2); type: binding, HCV genotype 1b, isolate con1; conditions: HCV protein NS3 as bait; human protein as prey
T1 construct: expressed in transfected cells; host or cells: Saccharomyces cerevisiae MAV203 (IMAP1) / AH109 (IMAP2)
T1 sequence (Q9WMX2 1027-1657): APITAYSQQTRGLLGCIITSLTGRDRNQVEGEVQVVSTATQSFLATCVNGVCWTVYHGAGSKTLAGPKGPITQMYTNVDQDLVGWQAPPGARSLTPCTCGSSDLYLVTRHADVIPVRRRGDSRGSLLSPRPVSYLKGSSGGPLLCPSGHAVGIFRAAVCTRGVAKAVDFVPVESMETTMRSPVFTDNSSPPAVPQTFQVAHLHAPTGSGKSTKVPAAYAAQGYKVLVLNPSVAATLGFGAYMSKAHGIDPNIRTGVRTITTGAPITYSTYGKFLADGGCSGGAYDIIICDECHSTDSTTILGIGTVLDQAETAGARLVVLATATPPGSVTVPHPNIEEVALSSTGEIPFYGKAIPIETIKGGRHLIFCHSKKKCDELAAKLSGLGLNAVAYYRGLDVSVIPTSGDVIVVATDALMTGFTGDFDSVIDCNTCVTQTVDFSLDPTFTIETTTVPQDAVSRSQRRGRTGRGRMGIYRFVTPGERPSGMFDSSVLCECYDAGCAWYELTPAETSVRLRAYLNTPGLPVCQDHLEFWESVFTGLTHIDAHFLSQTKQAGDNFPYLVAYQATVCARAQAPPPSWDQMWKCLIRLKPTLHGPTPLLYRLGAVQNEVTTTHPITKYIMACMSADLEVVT

[3] = target: T2, HCV proteins (Hepatitis C virus genotype 1b, UniProt Q9WMX2); test: Validation by Y2H pairwise matrices; type: binding; conditions: validation of interaction with HCV protein NS3;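 note: yeast two-hybrid pairwise tests of interactions first found in Y2H screens of HCV bait proteins against human cDNA libraries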
T2 construct: expressed in transfected cells
T2 sequence (Q9WMX2 1027-1657): as above
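Throughout, for IMAP Y2H IMAP1 (number of IST): yeast two-hybrid screens using HCV genotype 1b proteins fused to Gal4-DB as baits against prey cDNA libraries from human spleen and foetal brain, IMAP1 via transformation and IMAP2 via mating.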
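Throughout, for IMAP Y2H IMAP2 (number of IST): yeast two-hybrid screens using HCV genotype 1b proteins fused to Gal4-DB as baits against prey cDNA libraries from human spleen and foetal brain, IMAP1 via transformation and IMAP2 via mating.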
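Throughout, for Interaction with viral protein: yeast two-hybrid screens using HCV genotype 1b proteins fused to Gal4-DB as baits against prey cDNA libraries from human spleen and foetal brain, IMAP1 via transformation and IMAP2 via mating.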

| Molecule | Interaction with viral protein [1] | IMAP Y2H IMAP1 (number of IST) [2] | IMAP Y2H IMAP2 (number of IST) [2] | Y2H matrices [3] |
| --- | --- | --- | --- | --- |
| B1 | NS3 | 2 | 1 | + |
| B2 | NS3 | 1 |  | + |
| B3 | NS3 | 1 |  | + |
| B4 | NS3 | 2 |  | + |
| B5 | NS3 | 1 |  | + |
| B6 | NS3 | 3 |  | + |
| B7 | NS3 | 1 |  | + |
| B8 | NS3 | 1 |  | + |
